T1: B3GNT2 (Homo sapiens, UniProt Q9NY97)
T1 construct: The respective ORFs of candidate genes [CD274 (NM_014143), MCL1 (NM_021960), JUNB (NM_002229), and B3GNT2 (NM_006577)] were synthesized; expressed in transfected cells; host or cells: A375 melanoma cells (lentiviral ORF overexpression)
T1 sequence (Q9NY97 1-397): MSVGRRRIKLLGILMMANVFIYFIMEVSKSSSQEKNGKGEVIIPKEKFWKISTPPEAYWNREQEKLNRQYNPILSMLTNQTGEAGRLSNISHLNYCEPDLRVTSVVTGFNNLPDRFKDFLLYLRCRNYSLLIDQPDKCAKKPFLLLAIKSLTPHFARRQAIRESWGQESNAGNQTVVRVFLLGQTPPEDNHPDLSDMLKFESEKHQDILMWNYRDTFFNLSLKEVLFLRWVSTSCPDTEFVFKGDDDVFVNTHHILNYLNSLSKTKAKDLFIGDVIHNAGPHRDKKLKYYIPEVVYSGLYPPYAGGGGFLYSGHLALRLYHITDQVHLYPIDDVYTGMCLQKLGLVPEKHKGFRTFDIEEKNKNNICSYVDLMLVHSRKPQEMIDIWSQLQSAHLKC


Target: T1, B3GNT2
Assay: Co-IP of FLAG-tagged B3GNT2 followed by mass spectrometry
Type: cell-based
Set-up: C-term IgG / C-term flag: unit not given here
Details: Co-IP followed by mass spectrometry of B3GNT2; for C-term flag / C-term IgG: C-term tag; for C-term flag / N-term FLAG: FLAG pull-down; for C-term IgG / N-term IgG: IgG pull-down; for N-term FLAG / N-term IgG: N-term tag
Outline: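 FLAG-tagged B3GNT2 immunoprecipitated from cell lysate (HEPES, 1% Triton X-100, 150 mM NaCl) with anti-FLAG versus […], overnight at 4° C, then captured on Protein A/G magnetic beads for 4 h. Two biological replicates per condition. Peptides fractionated and analyzed by nano-LC on an Orbitrap Elite in data-dependent mode.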

C-term flag | C-term IgG | N-term FLAG | N-term IgG | Molecule
2 | 0 | 2 | 0 | XPOT (protein) MDEQALLGLNPNADSDFRQRALAYFEQLKISPDAWQVCAEALAQRTYSDDHVKFFCFQVLEHQVKYKYSELTTVQQQLIRETLISWLQAQMLNPQPEKTFIRNKAAQVFALLFVTEYLTKWPKFFFDILSVVDLNPRGVDLYLRILMAIDSELVDRDVVHTSEEARRNTLIKDTMREQCIPNLVESWYQILQNYQFTNSEVTCQCLEVVGAYVSWIDLSLIANDRFINMLLGHMSIEVLREEACDCLFEVVNKGMDPVDKMKLVESLCQVLQSAGFFSIDQEEDVDFLARFSKLVNGMGQSLIVSWSKLIKNGDIKNAQEALQAIETKVALMLQLLIHEDDDISSNIIGFCYDYLHILKQLTVLSDQQKANVEAIMLAVMKKLTYDEEYNFENEGEDEAMFVEYRKQLKLLLDRLAQVSPELLLASVRRVFSSTLQNWQTTRFMEVEVAIRLLYMLAEALPVSHGAHFSGDVSKASALQDMMRTLVTSGVSSYQHTSVTLEFFETVVRYEKFFTVEPQHIPCVLMAFLDHRGLRHSSAKVRSRTAYLFSRFVKSLNKQMNPFIEDILNRIQDLLELSPPENGHQSLLSSDDQLFIYETAGVLIVNSEYPAERKQALMRNLLTPLMEKFKILLEKLMLAQDEERQASLADCLNHAVGFASRTSKAFSNKQTVKQCGCSEVYLDCLQTFLPALSCPLQKDILRSGVRTFLHRMIICLEEEVLPFIPSASEHMLKDCEAKDLQEFIPLINQITAKFKIQVSPFLQQMFMPLLHAIFEVLLRPAEENDQSAALEKQMLRRSYFAFLQTVTGSGMSEVIANQGAENVERVLVTVIQGAVEYPDPIAQKTCFIILSKLVELWGGKDGPVGFADFVYKHIVPACFLAPLKQTFDLADAQTVLALSECAVTLKTIHLKRGPECVQYLQQEYLPSLQVAPEIIQEFCQALQQPDAKVFKNYLKVFFQRAKP
43 | 36 | 47 | 39 | JUP (protein) MEVMNLMEQPIKVTEWQQTYTYDSGIHSGANTCVPSVSSKGIMEEDEACGRQYTLKKTTTYTQGVPPSQGDLEYQMSTTARAKRVREAMCPGVSGEDSSLLLATQVEGQATNLQRLAEPSQLLKSAIVHLINYQDDAELATRALPELTKLLNDEDPVVVTKAAMIVNQLSKKEASRRALMGSPQLVAAVVRTMQNTSDLDTARCTTSILHNLSHHREGLLAIFKSGGIPALVRMLSSPVESVLFYAITTLHNLLLYQEGAKMAVRLADGLQKMVPLLNKNNPKFLAITTDCLQLLAYGNQESKLIILANGGPQALVQIMRNYSYEKLLWTTSRVLKVLSVCPSNKPAIVEAGGMQALGKHLTSNSPRLVQNCLWTLRNLSDVATKQEGLESVLKILVNQLSVDDVNVLTCATGTLSNLTCNNSKNKTLVTQNSGVEALIHAILRAGDKDDITEPAVCALRHLTSRHPEAEMAQNSVRLNYGIPAIVKLLNQPNQWPLVKATIGLIRNLALCPANHAPLQEAAVIPRLVQLLVKAHQDAQRHVAAGTQQPYTDGVRMEEIVEGCTGALHILARDPMNRMEIFRLNTIPLFVQLLYSSVENIQRVAAGVLCELAQDKEAADAIDAEGASAPLMELLHSRNEGTATYAAAVLFRISEDKNPDYRKRVSVELTNSLFKHDPAAWEAAQSMIPINEPYGDDMDATYRPMYSSDVPLDPLEMHMDMDGDYPIDTYSDGLRPPYPTADHMLA

More lines, now with the values behind:

Molecule | C-term flag | C-term IgG | N-term FLAG | N-term IgG
DDX17 (protein) MPTGFVAPILCVLLPSPTREAATVASATGDSASERESAAPAAAPTAEAPPPSVVTRPEPQALPSPAIRAPLPDLYPFGTMRGGGFGDRDRDRDRGGFGARGGGGLPPKKFGNPGERLRKKKWDLSELPKFEKNFYVEHPEVARLTPYEVDELRRKKEITVRGGDVCPKPVFAFHHANFPQYVMDVLMDQHFTEPTPIQCQGFPLALSGRDMVGIAQTGSGKTLAYLLPAIVHINHQPYLERGDGPICLVLAPTRELAQQVQQVADDYGKCSRLKSTCIYGGAPKGPQIRDLERGVEICIATPGRLIDFLESGKTNLRRCTYLVLDEADRMLDMGFEPQIRKIVDQIRPDRQTLMWSATWPKEVRQLAEDFLRDYTQINVGNLELSANHNILQIVDVCMESEKDHKLIQLMEEIMAEKENKTIIFVETKRRCDDLTRRMRRDGWPAMCIHGDKSQPERDWVLNEFRSGKAPILIATDVASRGLDVEDVKFVINYDYPNSSEDYVHRIGRTARSTNKGTAYTFFTPGNLKQARELIKVLEEANQAINPKLMQLVDHRGGGGGGGGRSRYRTTSSANNPNLMYQDECDRRLRGVKDGGRRDSASYRDRSETDRAGYANGSGYGSPNSAFGAQAGQYTYGQGTYGAAAYGTSSYTAQEYGAGTYGASSTTSTGRSSQSSSQQFSGIGRSGQQPQPLMSQQFAQPPGATNMIGYMGQTAYQYPPPPPPPPPSRK | 30 | 22 | 23 | 23
P4HA2 (protein) EFFTSIGHMTDLIYAEKELVQSLKEYILVEEAKLSKIKSWANKMEALTSKSAADAEGYLAHPVNAYKLVKRLNTDWPALEDLVLQDSAAGFIANLSVQRQFFPTDEDEIGAAKALMRLQDTYRLDPGTISRGELPGTKYQAMLSVDDCFGMGRSAYNEGDYYHTVLWMEQVLKQLDAGEEATTTKSQVLDYLSYAVFQLGDLHRALELTRRLLSLDPSHERAGGNLRYFEQLLEEEREKTLTNQTEAELATPEGIYERPVDYLPERDVYESLCRGEGVKLTPRRQKRLFCRYHHGNRAPQLLIAPFKEEDEWDSPHIVRYYDVMSDEEIERIKEIAKPKLARATVRDPKTGVLTVASYRVSKSSWLEEDDDPVVARVNRRMQHITGLTVKTAELLQVANYGVGGQYEPHFDFSRNDERDTFKHLGTGNRVATFLNYMSDVEAGGATVFPDLGAAIWPKKGTAVFWYNLLRSGEGDYRTRHAACPVLVGCKWVSNKWFHERGQEFLRPCGSTEVD | 4 | 0 | 0 | 0
HNRNPH1 (protein, UniProt P31943 1-449, looked up) Heterogeneous nuclear …: MMLGTEGGEGFVVKVRGLPWSCSADEVQRFFSDCKIQNGAQGIRFIYTREGRPSGEAFVELESEDEVKLALKKDRETMGHRYVEVFKSNNVEMDWVLKHTGPNSPDTANDGFVRLRGLPFGCSKEEIVQFFSGLEIVPNGITLPVDFQGRSTGEAFVQFASQEIAEKALKKHKERIGHRYIEIFKSSRAEVRTHYDPPRKLMAMQRPGPYDRPGAGRGYNSIGRGAGFERMRRGAYGGGYGGYDDYNGYNDGYGFGSDRFGRDLNYCFSGMSDHRYGDGGSTFQSTTGHCVHMRGLPYRATENDIYNFFSPLNPVRVHIEIGPDGRVTGEADVEFATHEDAVAAMSKDKANMQHRYVELFLNSTAGASGGAYEHRYVELFLNSTAGASGGAYGSQMMGGMGLSNQSSYGGPASQQLSGGYGGGYGGQSSMSGYDQVLQENSSDFQSNIA | 15 | 11 | 11 | 11
CPT1A (protein) AEAHQAVAFQFTVTPDGIDLRLSHEALRQIYLSGLHSWKKKFIRFKNGIITGVYPASPSSWLIVVVGVMTTMYAKIDPSLGIIAKINRTLETANCMSSQTKNVVSGVLFGTGLWVALIVTMRYSLKVLLSYHGWMFTEHGKMSRATKIWMGMVKIFSGRKPMLYSFQTSLPRLPVPAVKDTVNRYLQSVRPLMKEEDFKRMTALAQDFAVGLGPRLQWYLKLKSWWATNYVSDWWEEYIYLRGRGPLMVNSNYYAMDLLYILPTHIQAARAGNAIHAILLYRRKLDREEIKPIRLLGSTIPLCSAQWERMFNTSRIPGEETDTIQHMRDSKHIVVYHRGRYFKVWLYHDGRLLKPREMEQQMQRILDNTSEPQPGEARLAALTAGDRVPWARCRQAYFGRGKNKQSLDAVEKAAFFVTLDETEEGYRSEDPDTSMDSYAKSLLHGRCYDRWFDKSFTFVVFKNGKMGLNAEHSWADAPIVAHLWEYVMSIDSLQLGYAEDGHCKGDINPNIPYPTRLQWDIPGECQEVIETSLNTANLLANDVDFHSFPFVAFGKGIIKKCRTSPDAFVQLALQLAHYKDMGKFCLTYEASMTRLFREGRTETVRSCTTESCDFVRAMVDPAQTVEQRLKLFKLASEKHQHMYRLAMTGSGIDRHLFCLYVVSKYLAVESPFLKEVLSEPWRLSTSQTPQQQVELFDLENNPEYVSSGGGFGPVADDGYGVSYILVGENLINFHISSKFSCPETGIISQGPSSDT | 2 | 0 | 2 | 0
DDX3X (protein) SHVAVENALGLDQQFAGLDLNSSDNQSGGSTASKGRYIPPHLRNREATKGFYDKDSSGWSSSKDKDAYSSFGSRSDSRGKSSFFSDRGSGSRGRFDDRGRSDYDGIGSRGDRSGFGKFERGGNSRWCDKSDEDDWSKPLPPSERLEQELFSGGNTGINFEKYDDIPVEATGNNCPPHIESFSDVEMGEIIMGNIELTRYTRPTPVQKHAIPIIKEKRDLMACAQTGSGKTAAFLLPILSQIYSDGPGEALRAMKENGRYGRRKQYPISLVLAPTRELAVQIYEEARKFSYRSRVRPCVVYGGADIGQQIRDLERGCHLLVATPGRLVDMMERGKIGLDFCKYLVLDEADRMLDMGFEPQIRRIVEQDTMPPKGVRHTMMFSATFPKEIQMLARDFLDEYIFLAVGRVGSTSENITQKVVWVEESDKRSFLLDLLNATGKDSLTLVFVETKKGADSLEDFLYHEGYACTSIHGDRSQRDREEALHQFRSGKSPILVATAVAARGLDISNVKHVINFDLPSDIEEYVHRIGRTGRVGNLGLATSFFNERNINITKDLLDLLVEAKQEVPSWLENMAYEHHYKGSSRGRSKSSRFSGGFGARDYRQSSGASSSSFSSSRASSSRSGGGGHGSSRGFGGGGYGGFYNSDGYGGNYNSQGVDWWGN | 23 | 15 | 18 | 19

From patent US20240261333A1, “NOVEL TARGETS FOR ENHANCING ANTI-TUMOR IMMUNITY” (THE BROAD INSTITUTE, INC., priority 2021, published 2024)
